Assay results as given in patent US20180133288A1 (ILDONG PHARM, published 2018).

T1: semaphorin 3A (UniProt Q14563 21-771, limits assumed)
T1 construct: also called Sema3A; Sema3A ligand
T1 sequence (looked up): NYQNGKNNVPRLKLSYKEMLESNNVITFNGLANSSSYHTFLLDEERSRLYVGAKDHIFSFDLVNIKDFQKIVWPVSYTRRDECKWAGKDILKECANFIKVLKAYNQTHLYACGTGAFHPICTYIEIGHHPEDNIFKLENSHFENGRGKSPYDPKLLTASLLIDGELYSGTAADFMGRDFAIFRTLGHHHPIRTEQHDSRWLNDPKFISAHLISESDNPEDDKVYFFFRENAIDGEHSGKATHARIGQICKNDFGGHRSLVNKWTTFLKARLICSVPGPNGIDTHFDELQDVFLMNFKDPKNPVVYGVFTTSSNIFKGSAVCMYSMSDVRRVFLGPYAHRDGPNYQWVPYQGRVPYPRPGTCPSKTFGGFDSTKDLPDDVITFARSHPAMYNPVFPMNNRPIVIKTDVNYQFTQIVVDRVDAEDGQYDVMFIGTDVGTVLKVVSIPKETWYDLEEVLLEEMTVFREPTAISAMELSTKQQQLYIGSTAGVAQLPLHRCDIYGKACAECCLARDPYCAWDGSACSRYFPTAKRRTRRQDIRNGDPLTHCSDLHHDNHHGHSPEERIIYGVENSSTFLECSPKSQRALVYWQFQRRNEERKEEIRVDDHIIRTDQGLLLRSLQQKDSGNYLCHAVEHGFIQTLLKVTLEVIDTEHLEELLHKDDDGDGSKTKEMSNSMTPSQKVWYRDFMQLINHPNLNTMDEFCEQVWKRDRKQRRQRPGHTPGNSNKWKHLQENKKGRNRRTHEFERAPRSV

B1: neuropilin 1 receptor (receptor, UniProt O14786 273-586, looked up)
chain: FKCMEALGMESGEIHSDQITASSQYSTNWSAERSRLNYPENGWTPGEDSYREWIQVDLGLLRFVTAVGTQGAISKETKKKYYVKTYKIDVSSNGEDWITIKEGNKPVLFQGNTNPTDVVVAVFPKPLITRFVRIKPATWETGISMRFEVYGCKITDYPCSGMLGMVSGLISDSQITSSNQGDRNWMPENIRLVTSRSGWALPPAPHSYINEWLQIDLGEEKIVRGIIIQGGKHRENKVFMRKFKIGYSNNGSDWKMIMDDSKRKAKSFEGNNNYDTPELRTFPALSTRFIRIYPERATHGGLGLRMELLGCEVE
notes: The construct is not defined; The same entry is used for the SPR and ELISA experiments; also called NRP1; NRP 1

What was measured:
neuropilin 1 receptor = target: B1; assay: SPR (Biacore 2000), neuropilin 1 domain fixed on CM5 chip, VEGF165 as analyte 80 nM to 5 nM
Description: (§1) First, the affinity to a neuropilin receptor was performed on neuropilin 1 (NRP 1). Specifically, surface plasmon resonance (SPR) was performed using Biacore 2000 (GE Healthcare) in order to investigate the binding ability of TPP to the neuropilin 1 domain. Specifically, each neuropilin 1 domain was diluted in 10 mM Na-acetate buffer (pH 4.0), and fixed on CMS sensor chip (GE Healthcare, USA) at about 1,000 response units (RU). […] After the association/dissociation analysis, the CMS chip was regenerated by allowing buffer (20mM NaOH, 1M NaCl, pH 10.0) to flow at a flow rate of 30 μl/min for 1 minute.

semaphorin 3A = target: T1, semaphorin 3A; assay: SPR (Biacore 2000), neuropilin 1 domain fixed on CM5 chip, semaphorin 3A as analyte 1 uM to 62.5 nM
Description: as §1

Binder | Kd (neuropilin 1 receptor) [nM] | Kd (semaphorin 3A) [nM]
VEGF165 (ligand, UniProt P15692-4 27-191, looked up) APMAEGGGQNHHEVVKFMDVYQRSYCHPIETLVDIFQEYPDEIEYIFKPSCVPLMRCGGCCNDEGLECVPTEESNITMQIMRIKPHQGQHIGEMSFLQHNKCECRPKKDRARQENPCGPCSERRKHLFVQDPQTCKCSCKNTDSRCKARQLELNERTCRCDKPRR | 3.51 | 
B1 |  | 27.9
